Test results taken from patent publication US11453711B2, “Fusion proteins of GLP-1 and GDF15 and conjugates thereof” (BEIJING QL BIOPHARMACEUTICAL CO., LTD., priority 2019, dated 2022).
Changes are numbered by the printed parent chain.

B1: MLC124: unconjugated GLP-1/GDF15 fusion protein, linker of at least 60 residues (protein)
chain: HGEGTFTSDVSSYLEEQAAKEFIAWLVRGGGGQEPGAQPGQEPGAQPGQEPGAQPGQEPGAQPGQEPGAQPGQEPGAQPGAQPGAQPGAQPARQGDHCPLGPGRCCRLHTVRASLEDLGWADWVLSPREVQVTMCIGACPSQFRAANLHAQIKTSLHRLRPDTVPAPCCVPASYNPMVLIQRTDTGVSLQTYDDLLARDCHCI
B2: MLC022: unconjugated GLP-1/GDF15 fusion protein (protein)
chain: HGEGTFTSDVSSYLEEQAAKEFIAWLVRGGGGQEPGQEPGQEPGQEPGQEPGQEPARQGDHCPLGPGRCCRLHTVRASLEDLGWADWVLSPREVQVTMCIGACPSQFRAANLHAQIKTSLHRLKPDTVPAPCCVPASYNPMVLIQKTDTGVSLQTYDDLLAKDCHCI
B3: MLC091: fusion polypeptide SEQ ID NO: 380 conjugated with Moiety B at 35C of Linker (conjugate)
chain: HGEGTFTSDVSSYLEEQAAKEFIAWLVRGGGGAQPGAQPGAQPGAQPGAQPGAQPGAQPGAQPGQCPGAQPGQEPGAQPGQEPGAQPGQEPGAQPGQEPGAQPGQEPGAQPARQGDHCPLGPGRCCRLHTVRASLEDLGWADWVLSPREVQVTMCIGACPSQFRAANLHAQIKTSLHRLKPDTVPAPCCVPASYNPMVLIQKTDTGVSLQTYDDLLAKDCHCI
modifications: Moiety B conjugated at linker Cys35
B4: MLC092: fusion polypeptide SEQ ID NO: 380 conjugated with Moiety C at 35C of Linker (conjugate)
chain: B3 chain
modifications: Moiety C conjugated at linker Cys35
B5: MLC088: fusion polypeptide SEQ ID NO: 378 conjugated with Moiety C at 41C of Linker (conjugate)
chain: B3 chain with C66E, G72C
modifications: Moiety C conjugated at linker Cys41
B6: MLC087: fusion polypeptide SEQ ID NO: 378 conjugated with Moiety B at 41C of Linker (conjugate)
chain: B3 chain with C66E, G72C
modifications: Moiety B conjugated at linker Cys41
B7: MLC017: fusion polypeptide SEQ ID NO: 264 conjugated with Moiety A at 55K of Linker (conjugate)
chain: HGEGTFTSDVSSYLEEQAAREFIAWLVRGGGGQEPGAQPGQEPGAQPGQEPGAQPGQEPGAQPGQEPGAQPGQEPGAQPGAQPGAKPGAQPGAQPGAQPGAQPGAQPGAQPARQGDHCPLGPGRCCRLHTVRASLEDLGWADWVLSPREVQVTMCIGACPSQFRAANLHAQIKTSLHRLRPDTVPAPCCVPASYNPMVLIQRTDTGVSLQTYDDLLARDCHCI
modifications: Moiety A conjugated at linker K55
B8: MLC084: fusion polypeptide SEQ ID NO: 376 conjugated with Moiety C at 39C of Linker (conjugate)
chain: B7 chain with R20K, A69Q, Q70C, K86Q, R180K, R202K, R218K
modifications: Moiety C conjugated at linker Cys39
B9: MLC086: fusion polypeptide SEQ ID NO: 377 conjugated with Moiety C at 37C of Linker (conjugate)
chain: B7 chain with R20K, G68C, A69Q, Q70A, K86Q, R180K, R202K, R218K
modifications: Moiety C conjugated at linker Cys37
B10: MLC085: fusion polypeptide SEQ ID NO: 377 conjugated with Moiety B at 37C of Linker (conjugate)
chain: B7 chain with R20K, G68C, A69Q, Q70A, K86Q, R180K, R202K, R218K
modifications: Moiety B conjugated at linker Cys37
B11: MLC075: fusion polypeptide SEQ ID NO: 369 conjugated with Moiety C at 41C of Linker (conjugate)
chain: B7 chain with R20K, G72C, K86Q, R180K, R202K, R218K
modifications: Moiety C conjugated at linker C41
B12: MLC083: fusion polypeptide SEQ ID NO: 376 conjugated with Moiety B at 39C of Linker (conjugate)
chain: B7 chain with R20K, A69Q, Q70C, K86Q, R180K, R202K, R218K
modifications: Moiety B conjugated at linker Cys39
B13: MLC074: fusion polypeptide SEQ ID NO: 369 conjugated with Moiety B at 41C of Linker (conjugate)
chain: B7 chain with R20K, G72C, K86Q, R180K, R202K, R218K
modifications: Moiety B conjugated at linker C41
B14: MLC081: fusion polypeptide SEQ ID NO: 374 conjugated with Moiety C at 35C of Linker (conjugate)
chain: B7 chain with R20K, E66C, A81Q, Q82E, K86Q, R180K, R202K, R218K
modifications: Moiety C conjugated at linker Cys35

Assay: Body weight and food intake in C57BL/6 mice, unconjugated fusion proteins, 30 nmol/kg daily 10 days
Format: in vivo
Details: C57 mice, 30 nmol/kg daily, Day11, unconjugated fusion proteins
Description: (§1) 10 week old male C57BL/6 mice were injected everyday subcutaneously with 15 nmol/kg of the fusion protein conjugates (i.e., MLC002, MLC 004, MLC 005, MLC 006, MLC 007, MLC 008, and MLC 009) for 14 days. Food intake and body weight were measured daily and five animals were used for each treatment group. Body weight (BW) was monitored for each individual animal, but food intake for each group animals was measured together. Day 1 and Day 14 are first day and last day of molecule dosage. % BW loss=100*(BW on Day n-BW on Day 1)/(BW on Day 1). Cumulative food intake on Day n represents sum of food intake from Day 1 to Day n. Data are indicated as mean values and standard error (SEM) or pooled values. Statistical analysis was performed by One-way ANOVA. Body weight reduction on Day 11 is calculated by −1*(% BW loss−% BW loss of vehicle group); Cumulative food intake reduction is calculated by −100*(cumulative food intake-cumulative food intake of vehicle)/cumulative food intake of vehicle.
As described in the above method, a daily dose of 30 nmol/kg of the unconjugated fusion proteins (i.e., MLC100, MLC023, MLC022, MLC020, MLC003, MLC124, MLC021, MLC019, MLC102) were administered to C57BL/6 for 10 days. Data were calculated as above method. Day 1 and Day 10 are first day and last day of administration.

In order of rising “Body weight reduction at 30 nmol/kg (% reduction compared to vehicle)(Day11)” value:
1. B2  10.4%
2. B1  23.0%

In order of rising “Cumulative food intake reduction at 30 nmol/kg (% reduction compared to vehicle)(Day11)” value:
1. B2  30.0%
2. B1  38.0%

Same assay, conditions: unconjugated fusion proteins, 30 nmol/kg daily 10 days; by linker length

In the case of B1, the “in vivo efficacy (food intake and body weight reduction)” value is reported as “the most significant results among all the tested fusion proteins”.

Assay: Body weight and food intake in C57BL/6 mice, fusion protein conjugates, 30 nmol/kg daily 10 days
Format: in vivo
Details: not given
Description: as §1
Data were calculated in the same way as described above. Day 1 and Day 10 are first day and last day of the administration.
MLC014 was used as a negative control. MLC014 has an amino acid sequence of SEQ ID NO: 261, which contains a linker fused to the N terminal of GDF15, with a CRM conjugated to the lysine residue in the linker. Tirzepatide was also used as a control.

In order of rising “Body weight reduction at 30 nmol/kg (% reduction compared to vehicle)(Day11)” value:
1. B13  20.0%
2. B8  20.7%
3. B11  20.7%
4. B14  21.5%
5. B12  21.6%
6. B4  22.2%
7. B5  22.4%
8. B3  22.7%
9. B6  22.7%
10. B10  23.8%
11. B9  24.4%
12. B7  25.4%

In order of falling “Cumulative food intake reduction at 30 nmol/kg (% reduction compared to vehicle)(Day11)” value:
1. B7  52.3%
2. B12  50.5%
3. B11  46.2%
4. B10  40.1%
5. B13  39.9%
6. B14  39.0%
7. B3  38.1%
8. B8  36.2%
9. B5  34.8%
10. B9  34.8%
11. B4  33.9%
12. B6  31.8%

Assay: Pharmacokinetic measurement in mouse, single sc dose 30 nmol/kg, plasma ELISA
Details: read-out: Cmax (nmol/L), single sc dose 30 nmol/kg

In order of falling Cmax:
1. B13  102 nmol/L
2. B11  69.8 nmol/L
3. B7  29.4 nmol/L

Same assay, conditions: single sc dose 30 nmol/kg

In order of rising “AUC0-24 h” value:
1. B7  0.4385 µM·h
2. B11  1.2753 µM·h
3. B13  1.8247 µM·h

In order of rising “Terminal t1/2” value:
1. B7  11.1 h
2. B13  18.0 h
3. B11  20.4 h

In order of falling “Tmax” value:
1. B11  13.3 h
2. B13  10.7 h
3. B7  7.3 h
